Results published in article PMC4212090, “The comprehensive analysis of DEG/ENaC subunits in Hydra reveals a large variety of peptide-gated channels, potentially involved in neuromuscular transmission” (BMC Biology, 2014).
Values belong to the substance of their own block, whether it stands above or below them.

What was measured:
[1] = tested on: functional HyNaC heterotrimer; assay: Screen of functional HyNaC heterotrimers in Xenopus oocytes for activation by Hydra-RFamides; type: cell-based, Hydra magnipapillata; conditions: 5 μM peptide; Xenopus oocytes
Description: We tested the function of the new HyNaCs by co-expression of different HyNaC subunit combinations in Xenopus oocytes. We screened for functional subunit combinations by application of 5 μM Hydra-RFamide I, a potent agonist of HyNaC2/3/5 [4]. When we expressed an individual HyNaC subunit we could never elicit currents. […] When HyNaC2 was part of the injected cRNA pool, however, Hydra-RFamide I elicited currents. Simultaneous expression of HyNaC2 with a single other HyNaC resulted only in a functional channel when we co-expressed HyNaC2 and HyNaC3; it was already known that HyNaC2 and HyNaC3 form a low-affinity peptide-gated channel.
Dashed line represents the zero current level. Amino acid sequences of Hydra-RFamides I to V are shown at the bottom. HyNaC, Hydra Na^+ channel.
Since Hydra-RFamide II had been shown previously to activate HyNaC2/3/5 [4], we tested Hydra-RFamides II to V for channel activation.
To study the biophysical properties of the new HyNaCs, cRNA of HyNaCs was synthesized in vitro (mMessage mMachine kit, Ambion, Austin, Texas, USA) and injected into Xenopus laevis oocytes of stage V and VI. After injection, oocytes were incubated for one to two days at 19°C in oocyte Ringer’s solution 2 (OR-2), which contained (in mM): 82.5 NaCl, 2.5 KCl, 1.0 Na2HPO4, 1.0 MgCl2, 1.0 CaCl2, 5.0 HEPES, 0.5 g/l PVP, 1,000 U/l penicillin and 10 mg/l streptomycin, NaOH was used to adjust pH to 7.3. Whole cell currents were recorded from defolliculated oocytes by two-electrode voltage-clamp (TEVC) using the amplifier TurboTec 03X (npi electronic GmbH, Tamm, Germany). Standard bath solution (in mM: 140 NaCl, 10 HEPES, 1.8 CaCl2 and 1.0 MgCl2. NaOH was used to adjust pH to 7.4.) was exchanged by a pump driven system combined with the oocyte testing carousel (OTC), which was controlled by the interface OTC-20 [53]. To control the OTC-20 and to record the data to the hard drive, the software CellWorks (version 5.1.1; npi electronic GmbH, Tamm, Germany) was used. Data were sampled at 0.1 to 1 kHz and filtered at 20 Hz. HyNaCs are permeable for Ca^2+, activating an endogenous CaCC [40]. Therefore, unless otherwise indicated, oocytes were injected with 50 nl of 20 mM EGTA 30 to 180 minutes before measurements. Reversal potentials and Ca^2+ permeabilities of HyNaCs were studied as described previously.

[2] = target: HyNaC2/3/5 (Hydra magnipapillata)
[3] = target: HyNaC2/9/7 (Hydra magnipapillata)
[4] = target: HyNaC2/3/7 (Hydra magnipapillata)
[5] = target: HyNaC2/4/6 (Hydra magnipapillata)
[6] = target: HyNaC2/10/7 (Hydra magnipapillata)
[7] = target: HyNaC2/11/5 (Hydra magnipapillata)
[8] = target: HyNaC2/3/6 (Hydra magnipapillata)
[9] = target: HyNaC2/3/7 (Hydra magnipapillata); remark: listed apart in the source
[10] = target: HyNaC2/4/6 (Hydra magnipapillata); remark: listed apart in the source
[11] = target: HyNaC2/10/7 (Hydra magnipapillata); remark: listed apart in the source
[12] = target: HyNaC2/3/6 (Hydra magnipapillata); remark: listed apart in the source
[13] = target: HyNaC2/3/5 (Hydra magnipapillata); remark: listed apart in the source
[14] = target: HyNaC2/9/7 (Hydra magnipapillata); remark: listed apart in the source
[15] = target: HyNaC2/11/5 (Hydra magnipapillata); remark: listed apart in the source

Substance: Hydra-RFamide V
- activation of functional HyNaC heterotrimers (current elicited) [1]: did not elicit a current

Substance: Hydra-RFamide IV
- activation of functional HyNaC heterotrimers (current elicited) [1]: did not elicit a current

- EC50 of current activation by Hydra-RFamide I (two-electrode voltage clamp, Xenopus oocytes injected with EGTA) [2]: 3480 nM
- EC50 of current activation by Hydra-RFamide I (two-electrode voltage clamp, Xenopus oocytes injected with EGTA) [3]: 40 nM
- EC50 of current activation by Hydra-RFamide I (two-electrode voltage clamp, Xenopus oocytes injected with EGTA) [4]: 190 nM
- EC50 of current activation by Hydra-RFamide I (two-electrode voltage clamp, Xenopus oocytes injected with EGTA) [5]: 700 nM
- EC50 of current activation by Hydra-RFamide I (two-electrode voltage clamp, Xenopus oocytes injected with EGTA); saturation not reached [6]: > 30000 nM
- EC50 of current activation by Hydra-RFamide I (two-electrode voltage clamp, Xenopus oocytes injected with EGTA) [7]: 13800 nM
- EC50 of current activation by Hydra-RFamide I (two-electrode voltage clamp, Xenopus oocytes injected with EGTA) [8]: 290 nM
Substance: Hydra-RFamide I (peptide)

- current at the highest concentration of Hydra-RFamide II of the concentration-response series (two-electrode voltage clamp, EGTA-injected oocytes); concentrations and EC50 not given [9]: 11.8 μA
- current at the highest concentration of Hydra-RFamide II of the concentration-response series (two-electrode voltage clamp, EGTA-injected oocytes); concentrations and EC50 not given [10]: 4.7 μA
- current at the highest concentration of Hydra-RFamide II of the concentration-response series (two-electrode voltage clamp, EGTA-injected oocytes); concentrations and EC50 not given [11]: 1.1 μA
- current at the highest concentration of Hydra-RFamide II of the concentration-response series (two-electrode voltage clamp, EGTA-injected oocytes); concentrations and EC50 not given [12]: 9.2 μA
- EC50 of current activation by Hydra-RFamide II (two-electrode voltage clamp, Xenopus oocytes injected with EGTA) [13]: 1610 nM
- EC50 of current activation by Hydra-RFamide II (two-electrode voltage clamp, Xenopus oocytes injected with EGTA) [14]: 40 nM
- EC50 of current activation by Hydra-RFamide II (two-electrode voltage clamp, Xenopus oocytes injected with EGTA) [15]: 950 nM
Substance: Hydra-RFamide II (peptide)
